Experimental data: ChEMBL document CHEMBL2074001, “Competition of hydrophobic peptides, cytotoxic drugs, and chemosensitizers on a common P-glycoprotein pharmacophore as revealed by its ATPase activity” (J Biol Chem, 1996)

Tests used:
[1] = tested on: CC(C)[C@@H]1NC(=O)[C@H](C)OC(=O)[C@@H](C(C)C)NC(=O)[C@@H](C(C)C)OC(=O)[C@H](C(C)C)NC(=O)[C@H](C)OC(=O)[C@@H](C(C)C)NC(=O)[C@@H](C(C)C)OC(=O)[C@H](C(C)C)NC(=O)[C@H](C)OC(=O)[C@@H](C(C)C)NC(=O)[C@@H](C(C)C)OC1=O; assay: (§1) TP_TRANSPORTER: ATP hydrolysis in reconstituted proteoliposomes; assay type: functional, subcellular
[2] = tested on: CC[C@H]1CN2CCc3cc(OC)c(OC)cc3[C@@H]2C[C@@H]1C[C@H]1NCCc2cc(OC)c(OC)cc21; assay: as §1; assay type: functional, subcellular

ATP-dependent translocase ABCB1 (Homo sapiens)
Km [1]: 1 µM
Km [2]: 6 µM
